This note sets out measurements from patent publication US20200339678A1 (RIGEL PHARMACEUTICALS, published 2020).

Positions count from the first letter of the chain named.

In experiment [1] the target is T1, His-tagged recombinant Human TIGIT (human, UniProt Q495A1 22-141).
T1 construct: also called VSIG9; VSTM3; not shown: His tag
T1 sequence (looked up): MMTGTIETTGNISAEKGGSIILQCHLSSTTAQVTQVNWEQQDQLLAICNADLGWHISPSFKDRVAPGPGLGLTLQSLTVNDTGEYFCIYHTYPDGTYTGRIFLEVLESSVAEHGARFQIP
Briefly: ELISA, coated His-tagged human TIGIT. The method, then:
(§1) Binding affinities for antigen binding to anti-TIGIT monoclonal antibodies were determined by ELISA. […] Antibodies to be tested were diluted to 1 μM in PBS buffer containing 1% BSA and diluted 3-fold in a 10-point curve. […] Detection of the secondary antibody was determined using streptavidin-HRP and TMB reagent. All assays were performed at room temperature. Curve-fitting software was used to determine the EC₅₀ for each antibody.

The target in experiment [2] is T2, His-tagged recombinant Mouse TIGIT (mouse, UniProt P86176 29-148, limits assumed).
T2 construct: not shown: His tag
T2 sequence (looked up): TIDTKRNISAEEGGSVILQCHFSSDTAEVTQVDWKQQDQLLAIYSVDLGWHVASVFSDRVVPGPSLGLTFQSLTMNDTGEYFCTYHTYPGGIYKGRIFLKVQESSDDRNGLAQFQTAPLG
The experiment in a line: ELISA, coated His-tagged mouse TIGIT. The method, then: as §1

B1: Ab4 (Fab, V domains shown)
VH: EVQLLESGGGLVQPGGSLRLSCAASGFTFDSYGMNWVRQAPGKGLEWVASIKYSSGYKYYADSVKGRFTISRDNSKNTLYLQMNSLRAEDTAVYYCARGPYDVWMDYWGQGTLVTVSS
VL: not shown
notes: ARG set
One may read the EC50 as the midpoint of the concentration-response curve. Take B1: in experiment [1], the EC50 stood at 0.0012 µM.

B2: Ab123 (Fab, V domains shown)
VH: EVQLLESGGGLVQPGGSLRLSCAASGFTFSSYSMSWVRQAPGKGLEWVASISSSAGTSSYADSVKGRFTISRDNSKNTLYLQMNSLRAEDTAVYYCAREPYGVWLDYWGQGTLVTVSS
VL: not shown
notes: ARE set
Consider B2, for which, in experiment [2], the EC50 turned out to be 0.578 µM.

B3: Ab77 (Fab, V domains shown)
VH: EVQLLESGGGLVQPGGSLRLSCAASGFTFSSYSMNWVRQAPGKGLEWVAAISGNTGYTYYADSVKGRFTISRDNSKNTLYLQMNSLRAEDTAVYYCAREPYSYWMDYWGQGTLVTVSS
VL: not shown
notes: ARE set
Turning to B3, the EC50 in experiment [2] was 0.111 µM.

B4: Ab31 (Fab, V domains shown)
VH: B1 VH with D30S, G33T, N35H, S50N, Y53S, G56S, Y57T, M105L
VL: not shown
notes: ARG set
B4: in experiment [2], the EC50 was found to be 0.0569 µM.

B5: Ab128 (Fab, V domains shown)
VH: B3 VH with A50S, S52K, N54S, T55A, G56S, Y59S, E99V, S102D, M105I
VL: not shown
notes: ARV set
Take B5: the concentration for a half-maximal effect (EC50) in experiment [2] stood at 0.265 µM.

B6: Ab25 (Fab, V domains shown)
VH: EVQLLESGGGLVQPGGSLRLSCAASGFTFSSYGMHWVRQAPGKGLEWVAAIKSSGSSTSYADSVKGRFTISRDNSKNTLYLQMNSLRAEDTAVYYCARVPYGYWMDYWGQGTLVTVSS
VL: not shown
notes: ARV set
Turning to B6, the EC50 in experiment [2] was 0.0209 µM.

B7: Ab51 (Fab, V domains shown)
VH: B2 VH with S33A, A49S, S52K, S54N, A55S, T57S, S58K, G102S, L105M
VL: not shown
notes: ARE set
For B7, the EC50 in experiment [2] was 0.0798 µM.

B8: Ab81 (Fab, V domains shown)
VH: B3 VH with N35H, A50S, S52K, Y57S, T58S, Y59G, E99V, S102D, Y103V, M105I
VL: not shown
notes: ARV set
Consider B8, for which the EC50 in experiment [2] amounted to 0.307 µM.

B9: Ab87 (Fab, V domains shown)
VH: B2 VH with S52K, T57Y, S58I, E99V, G102D, V103Y, L105I
VL: not shown
notes: ARV set
B9: in experiment [2], the EC50 is 0.23 µM.

B10: Ab36 (Fab, V domains shown)
VH: B2 VH with S33A, S52K, A55G, G56S, T57Y, S58K, G102S, V103T
VL: not shown
notes: ARE set
Take B10: the EC50 in experiment [2] stood at 0.47 µM.

B11: Ab100 (Fab, V domains shown)
VH: B2 VH with S33A, S52N, S53G, S54N, S58I, G102S, V103Y
VL: not shown
notes: ARE set
For B11, the EC50 in experiment [2] is 0.258 µM.

B12: Ab42 (Fab, V domains shown)
VH: B6 VH with A50R, K52N, S54N, S56G, T58K, V99G, M105F
VL: not shown
notes: ARG set
Regarding B12, the EC50 in experiment [2] was determined as 0.0605 µM.

B13: Ab65 (Fab, V domains shown)
VH: B2 VH with S33A, S50Y, S52K, S54N, A55T, T57S, S58I, G102S
VL: not shown
notes: ARE set
As to B13, the EC50 in experiment [2] worked out at 0.778 µM.

B14: Ab57 (Fab, V domains shown)
VH: B6 VH with G33S, A50Y, S54D, G55T, S57T, T58I, S59G, G102D, Y103V, M105I
VL: not shown
notes: ARV set
On to B14, for which the EC50 in experiment [2] was 0.305 µM.

B15: Ab111 (Fab, V domains shown)
VH: B6 VH with G33S, A49S, K52S, S53G, S56G, S59Y
VL: not shown
notes: ARV set
On to B15, for which, in experiment [2], the EC50 is 0.185 µM.

B16: Ab119 (Fab, V domains shown)
VH: B2 VH with S52K, A55T, S58I, E99V, G102D, V103Y, L105M
VL: not shown
notes: ARV set
Regarding B16, the EC50 in experiment [2] came out at 0.279 µM.

B17: Ab154 (Fab, V domains shown)
VH: B6 VH with G33S, A50S, S54N, G55T, S56G, S57T, S59G
VL: not shown
notes: ARV set
Take B17: the EC50 in experiment [2] came out at 0.122 µM.

B18: Ab146 (Fab, V domains shown)
VH: B2 VH with S33A, S35H, S53G, S54N, T57S, E99V, L105I
VL: not shown
notes: ARV set
B18: in experiment [2], the EC50 was found to be 0.0078 µM.

B19: Ab173 (Fab, V domains shown)
VH: B2 VH with S33A, A49S, S54N, A55T, S58I, E99V, V103Y, L105M
VL: not shown
notes: ARV set
For the molecule B19, the EC50 in experiment [2] is 0.0649 µM.

B20: Ab138 (Fab, V domains shown)
VH: B2 VH with S33A, S52K, A55T, S58T, S59G, G102S, L105I
VL: not shown
notes: ARE set
As for B20, in experiment [2], the EC50 was 0.0586 µM.

B21: Ab188 (Fab, V domains shown)
VH: B2 VH with S35H, S52K, S54N, E99V, G102D, L105I
VL: not shown
notes: ARV set
Turning to B21, the EC50 in experiment [2] worked out at 0.0403 µM.

B22: Ab26 (Fab, V domains shown)
VH: B6 VH with G33S, H35S, A50D, S57T, T58K, V99E, G102D
VL: not shown
notes: ARE set
For B22, the EC50 in experiment [2] worked out at 0.0475 µM.

B23: Ab117 (Fab, V domains shown)
VH: B2 VH with S33A, S50A, S52K, G56S, S58I, S59Y, G102S, L105M
VL: not shown
notes: ARE set; also called clone Ab117
In the case of B23, the EC50 in experiment [2] came to 0.0107 µM.

B24: Ab137 (Fab, V domains shown)
VH: B6 VH with G33S, A50S, S53G, S54N, G55T, S56G, T58I, G102D, M105I
VL: not shown
notes: ARV set
As for B24, the EC50 in experiment [2] was 0.0849 µM.

B25: Ab79 (Fab, V domains shown)
VH: B6 VH with G33A, A50D, S54N, G55T, S56G, S57Y, S59Y, Y103V, M105I
VL: not shown
notes: ARV set
In the case of B25, in experiment [2], the EC50 is 0.0866 µM.

B26: Ab101 (Fab, V domains shown)
VH: B2 VH with S33A, S50D, S53G, S58I, E99V, V103Y
VL: not shown
notes: ARV set
In the case of B26, the EC50 in experiment [2] stood at 0.535 µM.

B27: Ab140 (Fab, V domains shown)
VH: B3 VH with S33A, N35S, A50S, S52N, G53S, Y57S, T58I, Y59G, M105L
VL: not shown
notes: ARE set
Turning to B27, the EC50 in experiment [2] was 0.173 µM.

B28: Ab14 (Fab, V domains shown)
VH: B1 VH with D30S, N35H, A49S, K52S, Y53S, S55G, Y57T, Y59G, G99V
VL: not shown
notes: ARV set
As to B28, the EC50 in experiment [2] worked out at 0.169 µM.

B29: Ab183 (Fab, V domains shown)
VH: B2 VH with S33A, A49S, S50Y, S52N, S54N, A55T, T57S, S58I, S59G, L105M
VL: not shown
notes: ARE set
Take B29: in experiment [2], the EC50 worked out at 0.11 µM.

B30: Ab199 (Fab, V domains shown)
VH: B2 VH with S35H, G56S, S59G, E99V, L105I
VL: not shown
notes: ARV set
As for B30, the EC50 in experiment [2] is 0.081 µM.

B31: Ab194 (Fab, V domains shown)
VH: B3 VH with N35S, A49S, S52N, T55A, Y57S, T58I, Y59G, S102G, Y103V
VL: not shown
notes: ARE set
For B31, the EC50 in experiment [2] worked out at 0.0706 µM.

B32: Ab91 (Fab, V domains shown)
VH: B2 VH with S50A, S52K, S53G, T57S, G102S, V103Y
VL: not shown
notes: ARE set
Consider B32, for which the EC50 in experiment [2] was found to be 0.242 µM.

B33: Ab162 (Fab, V domains shown)
VH: B2 VH with S33A, S50A, S52K, G56S, S58I, S59Y, G102S, L105M
VL: not shown
notes: ARE set
As for B33, the EC50 in experiment [2] came to 0.0204 µM.

B34: Ab45 (Fab, V domains shown)
VH: B6 VH with H35N, A50R, K52S, S57Y, T58I, S59G, V99G, M105L
VL: not shown
notes: ARG set
For B34, the EC50 in experiment [2] was 0.048 µM.

B35: Ab168 (Fab, V domains shown)
VH: B6 VH with G33A, H35S, A49S, A50S, S54D, G55T, S59Y, V99E, G102S, M105L
VL: not shown
notes: ARE set
Turning to B35, the EC50 in experiment [2] stood at 0.253 µM.

B36: Ab73 (Fab, V domains shown)
VH: B2 VH with S52K, S53G, T57S, E99V, G102D
VL: not shown
notes: ARV set
Regarding B36, in experiment [2], the EC50 was found to be 0.266 µM.

B37: Ab71 (Fab, V domains shown)
VH: B2 VH with S35H, G56S, S59Y, E99V, L105I
VL: not shown
notes: ARV set
For B37, in experiment [2], the EC50 is 0.477 µM.

B38: Ab186 (Fab, V domains shown)
VH: B2 VH with S35H, S54N, T57Y, E99V, G102D, L105I
VL: not shown
notes: ARV set
For the molecule B38, the EC50 in experiment [2] worked out at 0.429 µM.

B39: Ab44 (Fab, V domains shown)
VH: B6 VH with G33S, A49S, K52S, S54D, S57Y, T58I, G102D, Y103V, M105F
VL: not shown
notes: ARV set
B39: the EC50 in experiment [2] came to 0.128 µM.

B40: Ab150 (Fab, V domains shown)
VH: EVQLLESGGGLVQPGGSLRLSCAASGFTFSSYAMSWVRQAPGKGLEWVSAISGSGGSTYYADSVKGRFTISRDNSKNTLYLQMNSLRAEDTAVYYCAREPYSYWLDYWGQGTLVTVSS
VL: DIQMTQSPSSLSASVGDRVTITCRASQSISSYVAWYQQKPGKAPKLLIYVNTSRASGVPSRFSGSGSGTDFTLTISSLQPEDFATYYCQQWYEFNLTFGGGTKVEIK
notes: ARE set
For the molecule B40, in experiment [2], the EC50 amounted to 0.0007 µM.

B41: Ab158 (Fab, V domains shown)
VH: B2 VH with S50A, S52K, S53G, S59G, V103Y
VL: B40 VL with V50G, R54L, A55Q, W91G, Y92D, F94N, N95P
notes: ARE set
As to B41, the EC50 in experiment [2] was determined as 0.157 µM.

B42: Ab156 (Fab, V domains shown)
VH: B2 VH with S33A, A49S, S50Y, S53G, S54N, T57Y, S58I, E99V, L105M
VL: B40 VL with V33A, V50G, A55Q, W91Y, Y92S, E93N, F94S, N95P
notes: ARV set
In the case of B42, the EC50 in experiment [2] is 0.165 µM.
